Earlier results as cited in patent US5654276A, “Peptides and compounds that bind to the IL-5 receptor” (Affymax Technologies N.V., priority 1995, dated 1997).
pKd: −log10 of the molar value.

Biological target: T1, human IL-5 receptor (Homo sapiens, UniProt Q01344)
T1 construct: host or cells: HL60 subclone induced towards eosinophil differentiation with sodium butyrate (endogenous receptor)
T1 sequence (Q01344 21-420): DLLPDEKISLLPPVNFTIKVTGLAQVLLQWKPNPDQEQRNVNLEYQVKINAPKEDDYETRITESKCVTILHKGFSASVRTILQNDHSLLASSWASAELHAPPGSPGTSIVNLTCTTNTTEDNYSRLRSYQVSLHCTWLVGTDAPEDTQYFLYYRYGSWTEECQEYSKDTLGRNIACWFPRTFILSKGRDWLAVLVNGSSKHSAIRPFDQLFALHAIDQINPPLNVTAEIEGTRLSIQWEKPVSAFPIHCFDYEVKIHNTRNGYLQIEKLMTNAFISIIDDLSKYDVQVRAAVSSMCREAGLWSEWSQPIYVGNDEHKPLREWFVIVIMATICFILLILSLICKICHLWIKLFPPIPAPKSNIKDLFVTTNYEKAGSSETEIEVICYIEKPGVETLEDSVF
T1 sequence (P32927 17-897 partner): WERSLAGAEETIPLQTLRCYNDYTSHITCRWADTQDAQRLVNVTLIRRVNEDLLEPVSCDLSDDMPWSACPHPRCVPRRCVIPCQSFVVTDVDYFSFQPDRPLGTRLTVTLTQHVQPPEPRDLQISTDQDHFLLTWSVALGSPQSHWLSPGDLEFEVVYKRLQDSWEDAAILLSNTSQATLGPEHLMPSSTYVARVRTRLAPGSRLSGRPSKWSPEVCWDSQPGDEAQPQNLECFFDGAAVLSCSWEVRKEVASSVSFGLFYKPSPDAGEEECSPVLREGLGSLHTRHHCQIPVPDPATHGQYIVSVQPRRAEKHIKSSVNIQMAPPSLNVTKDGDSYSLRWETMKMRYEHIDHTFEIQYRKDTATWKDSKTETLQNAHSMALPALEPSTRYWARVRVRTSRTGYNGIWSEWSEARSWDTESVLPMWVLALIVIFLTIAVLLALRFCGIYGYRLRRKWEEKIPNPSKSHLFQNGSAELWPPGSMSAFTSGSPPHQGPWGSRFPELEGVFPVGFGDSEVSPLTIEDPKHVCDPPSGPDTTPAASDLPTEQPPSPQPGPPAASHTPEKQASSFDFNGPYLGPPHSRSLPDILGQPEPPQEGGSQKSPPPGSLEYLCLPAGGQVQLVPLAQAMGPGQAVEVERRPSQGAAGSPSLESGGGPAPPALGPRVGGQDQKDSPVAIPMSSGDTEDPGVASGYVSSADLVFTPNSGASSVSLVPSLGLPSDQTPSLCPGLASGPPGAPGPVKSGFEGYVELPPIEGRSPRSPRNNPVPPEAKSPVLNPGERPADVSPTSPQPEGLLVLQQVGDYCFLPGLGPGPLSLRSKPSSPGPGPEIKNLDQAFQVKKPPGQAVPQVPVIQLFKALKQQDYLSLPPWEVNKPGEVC
Conditions: HL60 subclone, eosinophilic differentiation initiated with sodium butyrate; read-out: Kd of IL-5 binding sites

Substance: IL-5: lymphokine secreted by T cells and mast cells having biological activities on B cells and eosinophils
- pKd: 10.52
